{"source": "paper PMC3787745", "about": "“Yeast Mnn9 is both a priming glycosyltransferase and an allosteric activator of mannan biosynthesis” (Open Biology, 2013)", "proteins": {"B1": {"name": "ScMnn9 (Saccharomyces cerevisiae S288C) (protein)", "chain": "EGHIAHYDLNKLHSTSEAAVNKEHILILTPMQTFHQQYWDNLLQLNYPRELIELGFITPRTATGDLALKKLENAIKKVQTDKKTQRFSKITILRQNSQSFDKLMEKERHALDVQKERRAAMALARNELLFSTIGPHTSWVLWLDADIIETPPSLIQDMTKHNKAILAANIYQRFYDEEKKQPSIRPYDFNNWQESDTGLEIASQMGDDEIIVEGYAEIATYRPLMAHFYDANGVPGEEMALDGVGGGCTLVKAEVHRDGAMFPNFPFYHLIETEGFAKMAKRLNYDVFGLPNYLVYHIEEENH", "notes": "glycosyltransferase domain 93-395, lacking first 92 residues; N-terminal MBP-His6-TEV tag cleaved; E. coli BL21(DE3) pLysS"}}, "key": {"[1]": {"substrate": "Cc1cc(=O)oc2cc(O[C@H]3O[C@H](CO)[C@@H](O)[C@H](O)[C@@H]3O)ccc12", "experiment": "coupled fluorimetric assay with Aman6 mannosidase (4-MU release)", "format": "biochemical, Saccharomyces cerevisiae", "conditions": "acceptor varied 0-10 mM, 1.2 mM GDP-Man, 10 mM MnCl2, 20 mM HEPES pH 7.5, 500 nM enzyme"}, "[2]": {"substrate": "Nc1nc2c(ncn2[C@@H]2O[C@H](COP(=O)(O)OP(=O)(O)O[C@H]3O[C@H](CO)[C@@H](O)[C@H](O)[C@@H]3O)[C@@H](O)[C@H]2O)c(=O)[nH]1", "experiment": "coupled fluorimetric assay with Aman6 mannosidase (4-MU release)", "format": "biochemical, Saccharomyces cerevisiae", "conditions": "donor varied 0-1.2 mM, 10 mM 4MU-Man, 10 mM MnCl2, 20 mM HEPES pH 7.5, 500 nM enzyme"}}, "data": [{"protein": "B1", "values": [{"measurement": "Km", "setting": "[1]", "value": "6.5 (±0.3) mM"}, {"measurement": "kcat", "setting": "[1]", "value": 0.0033, "unit": "s⁻¹"}, {"measurement": "Km", "setting": "[2]", "value": "0.5 (± 0.2) mM"}, {"measurement": "kcat", "setting": "[2]", "value": 0.0633, "unit": "s⁻¹"}]}]}
